Our source for the OD values is patent US20090176264A1.

Assay [1] addresses BSA (control) (bovine) (UniProt P02769). In words: ELISA, BSA control wells, sFlt at 1800 ng/mL, detected with RD-1 + RD-2 anti-sFlt.
For assay [2] the target is unchanged. In words: ELISA, BSA control wells, sFlt at 600 ng/mL, detected with RD-1 + RD-2 anti-sFlt. (In general: An ELISA detects its analyte on a solid surface through an enzyme-linked reagent.)
The target is the same in assay [3]. In words: ELISA, BSA control wells, sFlt at 66.67 ng/mL, detected with RD-1 + RD-2 anti-sFlt.
The target is the same in assay [4]. In words: ELISA, BSA control wells, sFlt at 200 ng/mL, detected with RD-1 + RD-2 anti-sFlt.
For assay [5] the target is unchanged. The assay is described as follows: ELISA, BSA control wells, sFlt at 600 ng/mL, detected with RD-1 + RD-2 anti-sFlt. The source holds these as a separate data set.
The target is the same in assay [6]. The assay is described as follows: ELISA, BSA control wells, sFlt at 66.67 ng/mL, detected with RD-1 + RD-2 anti-sFlt. This is another data set of the same source.
For assay [7] the target is unchanged. In words: ELISA, BSA control wells, sFlt at 200 ng/mL, detected with RD-1 + RD-2 anti-sFlt. The source holds these as a separate data set.

Sequence of BSA (control) (bovine) (P02769 25-607 limits assumed): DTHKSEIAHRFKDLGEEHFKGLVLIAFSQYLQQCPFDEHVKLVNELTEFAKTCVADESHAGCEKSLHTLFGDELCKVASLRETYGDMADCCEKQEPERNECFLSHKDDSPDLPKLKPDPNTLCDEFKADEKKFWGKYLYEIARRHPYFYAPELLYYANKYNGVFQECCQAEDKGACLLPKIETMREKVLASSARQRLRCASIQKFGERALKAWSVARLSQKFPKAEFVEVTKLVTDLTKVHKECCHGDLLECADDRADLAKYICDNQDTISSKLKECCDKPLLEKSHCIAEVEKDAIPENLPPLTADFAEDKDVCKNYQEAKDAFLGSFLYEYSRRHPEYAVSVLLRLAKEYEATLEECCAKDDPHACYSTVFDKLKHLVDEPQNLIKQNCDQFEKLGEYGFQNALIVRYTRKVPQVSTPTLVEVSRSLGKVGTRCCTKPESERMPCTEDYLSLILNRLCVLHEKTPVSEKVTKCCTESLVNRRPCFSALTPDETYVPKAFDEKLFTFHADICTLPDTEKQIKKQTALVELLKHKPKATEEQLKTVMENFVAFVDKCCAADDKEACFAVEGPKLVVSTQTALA
Sequence of Full length sFlt (soluble fms-like tyrosine kinase 1, sFlt-1), Scios Inc. Lot# 9225-89 (from UniProt P17948 27-656) (receptor) (P17948 other isoform, or with tags, fused parts or gaps limits assumed): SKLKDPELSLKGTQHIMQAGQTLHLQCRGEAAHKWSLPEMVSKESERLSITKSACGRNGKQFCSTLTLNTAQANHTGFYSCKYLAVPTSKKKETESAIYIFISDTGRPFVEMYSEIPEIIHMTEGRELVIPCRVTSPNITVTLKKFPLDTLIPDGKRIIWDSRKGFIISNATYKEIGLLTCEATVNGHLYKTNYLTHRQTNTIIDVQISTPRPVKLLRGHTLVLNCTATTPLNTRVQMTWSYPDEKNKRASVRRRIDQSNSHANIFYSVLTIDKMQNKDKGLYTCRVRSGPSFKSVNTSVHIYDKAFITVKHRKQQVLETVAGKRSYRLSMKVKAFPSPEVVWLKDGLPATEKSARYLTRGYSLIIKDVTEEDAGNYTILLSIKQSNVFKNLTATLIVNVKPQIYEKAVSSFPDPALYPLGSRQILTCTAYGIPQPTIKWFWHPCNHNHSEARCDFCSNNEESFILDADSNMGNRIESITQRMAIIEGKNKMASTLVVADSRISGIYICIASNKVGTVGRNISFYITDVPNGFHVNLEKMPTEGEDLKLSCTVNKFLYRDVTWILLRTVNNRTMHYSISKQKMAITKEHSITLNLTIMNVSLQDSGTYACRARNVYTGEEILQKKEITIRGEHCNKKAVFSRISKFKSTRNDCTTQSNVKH
Sequence of Full length sFlt (soluble fms-like tyrosine kinase 1, sFlt-1), Scios Inc. Lot# 9225-89 (from UniProt P17948 27-656) (P17948 other isoform, or with tags, fused parts or gaps limits assumed): as above

In the case of “Full length sFlt (soluble fms-like tyrosine kinase 1, sFlt-1), Scios Inc. Lot# 9225-89 (from UniProt P17948 27-656)”, the OD at 492 nm with BSA (control) (bovine) [1] worked out at 0.004 OD.

As for “Full length sFlt (soluble fms-like tyrosine kinase 1, sFlt-1), Scios Inc. Lot# 9225-89 (from UniProt P17948 27-656) (receptor)”, the OD at 492 nm in the assay with BSA (control) (bovine) [2] amounted to 0.008 OD; in the assay with BSA (control) (bovine) [3] it was 0.02 OD; with BSA (control) (bovine) [4], 0.005 OD; with BSA (control) (bovine) [1], 0.009 OD; with BSA (control) (bovine) [5], 0.006 OD; with BSA (control) (bovine) [6], 0.003 OD. In addition, the OD at 492 nm with BSA (control) (bovine) [7] turned out to be 0.01 OD.
